Data set [1] addresses T1, La WT (LARP3) (Homo sapiens, UniProt P05455 1-408).
T1 sequence: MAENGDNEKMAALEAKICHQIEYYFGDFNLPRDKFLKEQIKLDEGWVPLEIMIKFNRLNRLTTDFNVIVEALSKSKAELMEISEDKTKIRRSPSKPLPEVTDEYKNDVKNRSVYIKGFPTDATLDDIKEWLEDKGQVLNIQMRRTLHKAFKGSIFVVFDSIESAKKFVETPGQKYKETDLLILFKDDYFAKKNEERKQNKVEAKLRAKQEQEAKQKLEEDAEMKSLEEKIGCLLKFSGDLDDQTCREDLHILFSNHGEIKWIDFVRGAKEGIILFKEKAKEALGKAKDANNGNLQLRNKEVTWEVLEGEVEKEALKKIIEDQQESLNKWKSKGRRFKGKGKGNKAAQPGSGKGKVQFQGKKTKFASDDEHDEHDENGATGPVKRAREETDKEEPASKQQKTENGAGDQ
In words: competition; vs labeled D1-AUG; 20 mM Tris/HCl pH 8.0, 150 mM NaCl, 1.5 mM MgCl2, 0.5 mM EDTA, 0.5% NP-40 (FP: IGEPAL CA-630, 100 ug/ml bovine gamma globulin), 10 nM RNA, room temperature. Particulars: protein: recombinant; tags: His.

Data set [2] concerns the target T2, LaΔ1 (LAM deleted) (Homo sapiens, UniProt P05455 1-408, del11-99).
T2 sequence: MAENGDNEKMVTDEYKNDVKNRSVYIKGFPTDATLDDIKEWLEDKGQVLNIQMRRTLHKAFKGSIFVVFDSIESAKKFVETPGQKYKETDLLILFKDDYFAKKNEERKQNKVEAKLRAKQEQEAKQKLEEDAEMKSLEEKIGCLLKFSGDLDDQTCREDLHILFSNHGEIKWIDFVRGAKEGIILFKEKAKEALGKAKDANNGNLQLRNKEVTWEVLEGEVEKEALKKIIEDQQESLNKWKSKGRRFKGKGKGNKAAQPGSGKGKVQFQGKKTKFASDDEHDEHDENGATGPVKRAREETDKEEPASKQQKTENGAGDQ
In words: EMSA; affinity similar to WT; two complexes; 20 mM Tris/HCl pH 8.0, 150 mM NaCl, 1.5 mM MgCl2, 0.5 mM EDTA, 0.5% NP-40 (FP: IGEPAL CA-630, 100 ug/ml bovine gamma globulin), 10 nM RNA, room temperature. The settings on record: protein: recombinant; tags: His; label: 32P (EMSA) or 5'-FAM (FP); hairpin (predicted).

Data set [3] deals with T3, LaΔRCD (Homo sapiens, UniProt P05455 1-408, R334G;R335G;F336V;K337G;G338G;K339G;F357V;K360G;K361G;T362T;K363G;F364V).
T3 sequence: T1 sequence with R334G, R335G, F336V, K337G, K339G, F357V, K360G, K361G, K363G, F364V
In words: EMSA; similar to WT; two complexes at high La; 20 mM Tris/HCl pH 8.0, 150 mM NaCl, 1.5 mM MgCl2, 0.5 mM EDTA, 0.5% NP-40 (FP: IGEPAL CA-630, 100 ug/ml bovine gamma globulin), 10 nM RNA, room temperature. The settings on record: protein: recombinant; tags: His; label: 32P (EMSA) or 5'-FAM (FP); hairpin (predicted).

Data set [4] deals with T1, La WT (LARP3). As to the kind of experiment: EMSA; 20 mM Tris/HCl pH 8.0, 150 mM NaCl, 1.5 mM MgCl2, 0.5 mM EDTA, 0.5% NP-40 (FP: IGEPAL CA-630, 100 ug/ml bovine gamma globulin), 10 nM RNA, room temperature. The settings on record: protein: recombinant; tags: His; label: 32P (EMSA) or 5'-FAM (FP); hairpin (predicted).
The target in data set [5] is T4, La-Δlinker (Homo sapiens, UniProt P05455 1-408, del170-230).
T4 sequence: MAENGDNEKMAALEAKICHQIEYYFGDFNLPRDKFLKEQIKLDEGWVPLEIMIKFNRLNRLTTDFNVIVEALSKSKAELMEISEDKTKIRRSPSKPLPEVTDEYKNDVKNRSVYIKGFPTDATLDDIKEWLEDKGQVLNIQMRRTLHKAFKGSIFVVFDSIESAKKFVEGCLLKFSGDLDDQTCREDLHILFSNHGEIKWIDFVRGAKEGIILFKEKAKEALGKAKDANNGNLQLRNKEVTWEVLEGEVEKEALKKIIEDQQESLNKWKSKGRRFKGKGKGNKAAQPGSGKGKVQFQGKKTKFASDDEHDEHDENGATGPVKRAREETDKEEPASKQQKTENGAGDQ
The description is as above. The settings on record: protein: recombinant; tags: His; label: 32P (EMSA) or 5'-FAM (FP); hairpin (predicted).

For data set [6], the target named is T1, La WT (LARP3). As to the kind of experiment: fluorescence polarization; 5'-FAM RNA; 20 mM Tris/HCl pH 8.0, 150 mM NaCl, 1.5 mM MgCl2, 0.5 mM EDTA, 0.5% NP-40 (FP: IGEPAL CA-630, 100 ug/ml bovine gamma globulin), 10 nM RNA, room temperature. The settings on record: protein: recombinant; tags: His; label: 32P (EMSA) or 5'-FAM (FP); hairpin (predicted).

One may read the Kd as the equilibrium constant for the complex coming apart.

Changes are numbered by the printed parent chain.

In the case of CAGGAAGAGCCCCAGCCAGGGAACACCAGCUCCUG (ssRNA) [D1-mu2], the binding result in data set [1] is on record as “binds”.
Still for that read-out and setting: the result for CAGGAAGAGCCCCACAGAUGCACCACCAGCUCCUG (ssRNA) [D1-mu3] reads “no binding”.
Regarding GCUGCCCAGGAAGAGCCCCAGCCAUGGAACACCAGCUCCUGUGCUGC (structured_RNA) [D1-AUG], the binding result in data set [2] is on record as “binds”; in data set [3], “binds”; in data set [5], “no binding”. Moreover, the Kd in data set [4] was 80.3 nM; in data set [6], 76 nM.

These data come from publication PMC4288197, “Novel RNA chaperone domain of RNA-binding protein La is regulated by AKT phosphorylation”.
